Key:
[1] = target: T1, recombinant human caspase-3 (Homo sapiens, UniProt P42574); assay: Enzymatic assay: fluorescence light-up on DEVD cleavage by caspase-3; format: biochemical; settings: ascorbic acid pretreated TPS-DEVD-Pt-cRGD 10 μM, caspase-3 200 pM, inhibitor 10 μM
T1 construct: purchased R&D Systems
T1 sequence (P42574 29-175 limits assumed): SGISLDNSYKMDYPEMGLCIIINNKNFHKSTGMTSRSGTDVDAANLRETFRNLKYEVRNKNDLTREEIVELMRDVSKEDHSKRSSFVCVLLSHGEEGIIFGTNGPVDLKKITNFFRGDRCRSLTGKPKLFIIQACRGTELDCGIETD
T1 sequence (P42574 176-277 limits assumed): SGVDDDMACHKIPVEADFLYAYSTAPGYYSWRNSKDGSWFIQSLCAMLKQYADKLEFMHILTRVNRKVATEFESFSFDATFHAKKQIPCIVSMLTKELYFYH
Method: DMSO stock solutions of TPS-DEVD-Pt-cRGD were diluted with a mixture of DMSO and PIPES (v/v=1/199) to 10 μM. Next, each probe was incubated with ascorbic acid or caspase-3 at room temperature and the change of fluorescence intensity was measured. The PL spectra were collected from 420 to 650 nm under an excitation wavelength at 365 nm.
To study the enzymatic response of TPS-DEVD-COOH, we performed in vitro enzymatic assays with recombinant human caspase-3. Mixtures of the ascorbic acid pretreated prodrug (10 μM) and caspases-3 (200 pM) were prepared and incubated in PIPES buffer. After 1 h incubation, the PL spectra were measured in the range from 425 to 650 nm.
The fluorescence change of the TPS-DEVD-Pt-cRGD solution (10 μM) upon addition of ascorbic acid and caspase-3 enzyme was also monitored over time in a mixture of DMSO/PIPEs (v/v=1/199) buffer. […] We further studied the effect of caspase-3 concentration on the solution emission.

[2] = test system: MDA-MB-231 cells; assay: MTT cytotoxicity, MDA-MB-231; format: cell-based; settings: different concentrations, 72 h
Text: (§1) We next studied the cytotoxicity profile of the prodrug to MDA-MB-231 and MCF-7 cells by a MTT assay.

[3] = test system: MCF-7 cells; assay: MTT cytotoxicity, MCF-7; format: cell-based; settings: 72 h
Method: 3-(4,5-Dimethythiazol-2-yl)-2,5-diphenyltetrazolium bromide (MTT) assays were used to assess the metabolic activity of U87-MG and MCF-7 cancer cells. The cells were seeded in 96-well plates (Costar, Ill., USA) at an intensity of 4×10^4 cells mL^−1. After 24 h incubation, the medium was replaced by the probe suspension at different concentration of the prodrug and incubated at 37° C. After the designated time intervals, the wells were washed twice with 1×PBS buffer, and 100 μL of freshly prepared MTT (0.5 mg mL^−1) solution in culture medium was added into each well. The MTT medium solution was carefully removed after 3 h incubation in the incubator at 37° C. DMSO (100 μL) was then added into each well and the plate was gently shaken to dissolve all the precipitates formed. The absorbance of MTT at 570 nm was monitored by the microplate reader (Genios Tecan). Cell viability was expressed by the ratio of absorbance of the cells incubated with probe suspension to that of the cells incubated with culture medium only.
We next compared the relationship between the apoptosis induced fluorescence intensity change in cells and the cytotoxicity profile of the prodrug using both U87-MG and MCF-7 cells as an example. The fluorescence intensities at 480 nm are monitored upon excitation at 365 nm after incubation the cells for 6 h. The cytotoxicity of the cells was evaluated by a standard MTT method after the incubation for 72 h. In this experiment, we studied this effect using both U87-MG and MCF-7 cells. […] Also, we can find that higher cell viability of the cells will show lower fluorescence intensity which means low degrees of cell apoptosis. For example, when both cells are treated with 5 μM TPS-DEVD-Pt-cRGD, the cell viability is only 31% for U87-MG cells after 72 h incubation, while in sharp contrast, the cell viability is 92% for MCF-7 cells at the same conditions.
as §1

[4] = test system: ALP; assay: ALP detection in solution; format: biochemical; settings: emission maximum changes from 520 nm to 640 nm
Text: The emission maximum of the solution changes from 520 nm to 640 nm in the presence of ALP.

Structure (SMILES) | effect of inhibitor pretreatment on caspase-3 induced probe fluorescence [1] | cytotoxicity [2] | cytotoxicity [3] | optical response to ALP [4]
COC[C@@H]1CCCN1S(=O)(=O)c1ccc2c(c1)C(=O)C(=O)N2 [5-[(S)-(+)-2-(methoxymethyl)pyrrolidino]sulfonylisatin, reference compound] | most of the fluorescence is readily competed away |  |  | 
N=C(N)NCCC[C@@H]1NC(=O)[C@H](CCCCNC(=O)[C@H](CC(=O)O)NC(=O)[C@H](CC(=O)O)NC(=O)[C@H](CC(=O)O)NC(=O)[C@H](CC(=O)O)NC(=O)[C@H](CC(=O)O)NC(=O)CCCCCCC(=O)NCCCC[n+]2ccc(/C=C/c3ccc(C(=C(c4ccccc4)c4ccccc4)c4ccccc4)cc3)cc2)NC(=O)[C@@H](Cc2ccccc2)NC(=O)[C@H](CC(=O)O)NC(=O)CNC1=O [PyTPE-C6-D5-cRGD] |  | do not show significant cytotoxicity | do not show significant cytotoxicity | 
N=C(N)NCCC[C@@H]1NC(=O)[C@H](CCCCNC(=O)[C@H](CC(=O)O)NC(=O)[C@H](CC(=O)O)NC(=O)[C@H](CC(=O)O)NC(=O)[C@H](CC(=O)O)NC(=O)[C@H](CC(=O)O)NC(=O)CCC(=O)[O][Pt-2]([NH3+])([NH3+])([Cl])([Cl])[O]C(=O)CCC(=O)NCCCC[n+]2ccc(/C=C/c3ccc(C(=C(c4ccccc4)c4ccccc4)c4ccccc4)cc3)cc2)NC(=O)[C@@H](Cc2ccccc2)NC(=O)[C@H](CC(=O)O)NC(=O)CNC1=O [PyTPE-Pt-D5-cRGD] |  | much more obvious | minimum toxicity | 
[NH3+][Pt-2]([NH3+])([Cl])([Cl])([O]C(=O)CCC(=O)NCCCC[n+]1ccc(/C=C/c2ccc(C(=C(c3ccccc3)c3ccccc3)c3ccccc3)cc2)cc1)[O]C(=O)CCC(=O)N[C@@H](CC(=O)O)C(=O)N[C@@H](CC(=O)O)C(=O)N[C@@H](CC(=O)O)C(=O)N[C@@H](CC(=O)O)C(=O)N[C@@H](CC(=O)O)C(=O)O [PyTPE-Pt-D5] |  | do not show significant cytotoxicity | do not show significant cytotoxicity | 
CN(C)c1ccc(/C=C/C(=O)c2ccccc2OP(=O)(O)O)cc1 [probe-1] |  |  |  | distinct optical response
